The values below come from paper PMC12002316 (Proceedings of the National Academy of Sciences of the …, 2025).

In general, stoichiometry N refers to the number of molecules, sites or subunits per partner or assembly.

The data set deals with the molecule itself. As to the kind of experiment: cryo-EM structure.

B1: Chloroflexus aurantiacus F1FO ATP synthase c-subunit (natural protein, Chloroflexus aurantiacus J-10-fl, UniProt A9WGS9 1-76, looked up)
chain: MEGLNLVATALAVGLGAIGPGVGIGIIVSGAVQAIGRNPEIENRVVTYMFIGIAFTEALAIFGLVIAFLIGFGVLQ
Turning to B1, the “stoichiometry N” value was 10.
